We go through two molecules from patent US20250075190A1, “DE NOVO DESIGNED LUCIFERASE” (UNIVERSITY OF WASHINGTON, priority 2022, published 2025).

Series [1] addresses T1, native Renilla reniformis luciferase (RLuc) (Renilla reniformis, UniProt P27652).
T1 construct: host and tag of RLuc not clearly stated
T1 sequence (P27652 1-311): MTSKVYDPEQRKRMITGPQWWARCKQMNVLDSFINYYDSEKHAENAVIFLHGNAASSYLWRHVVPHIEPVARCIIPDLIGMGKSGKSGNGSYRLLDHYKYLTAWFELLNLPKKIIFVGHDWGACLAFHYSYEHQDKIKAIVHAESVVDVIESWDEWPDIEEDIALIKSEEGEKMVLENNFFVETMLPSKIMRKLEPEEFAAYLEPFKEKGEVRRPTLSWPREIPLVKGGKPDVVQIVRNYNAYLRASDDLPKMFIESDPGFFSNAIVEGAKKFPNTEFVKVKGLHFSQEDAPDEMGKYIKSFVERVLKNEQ
In words: Michaelis-Menten kinetics of native Renilla luciferase (RLuc) with CTZ. It is filed as biochemical. The settings on record: substrate CTZ; Table 3. An excerpt:
Synthetic genes and oligonucleotides were purchased from Integrated DNA Technologies or GenScript. The synthetic gene was inserted between NdeI and XhoI sites of a pET29b+ vector, containing an N-terminal hexahistidine tag followed by a TEV protease cleavage site and a C-terminal stop codon. Restriction endonucleases, Q5 PCR polymerase, and T4 ligase were purchased from NEB. Plasmid DNA, PCR products, or digested fragments were purified by Qiagen DNA purification kits. DNA sequences were analyzed by Genewiz. Coelenterazine (CTZ) was purchased from Gold Biotechnology. Diphenylterazine (DTZ), pyridyl diphenylterazine (8pyDTZ), and Furimazine (FRZ) were purchased from MedChemExpress. […] DNA and protein concentrations were determined by a NanoDrop™ small-volume 8 channel UV/vis spectrometer. […] All luminescence measurements were acquired by a Biotek Synergy Neo2T™ Multi-Mode Plate Reader. To convert relative arbitrary unit (RLU) to the number of photons, Neo2 plate reader was calibrated by determining the chemiluminescence of luminol with known quantum yield in the presence of horseradish peroxidase and hydrogen peroxide in K2CO3 aqueous solution as previously described^45. SDS PAGE and luminescence images were captured by a Bio-Rad ChemiDocT™ XRS+. Images were analyzed using the Fiji image analysis software. […]

A short description of series [2]: Michaelis-Menten kinetics measurements of purified luciferases. It is filed as biochemical. The method, then:
For Michaelis-Menten kinetics measurements, 25 μL of serial diluted DTZ substrate in Tris pH 8.0 buffer was added into the wells of a white 96-well half-area microplate containing 25 μL of purified luciferases (final enzyme concentration: 100 nM; substrate concentration: 0.78 to 50 μM). Measurements were taken every 1 min (0.1 s integration and 10 s shaking between each interval) for a total of 20 min. Initial velocities were estimated as the average of the light intensities from the first three data points to fit the Michaelis-Menten equation. All relative arbitrary unit (RLU) per second values were converted to photon/s by the luminol-H2O2—HRP calibration method^45. Following the equation: Imax=LQY×kcat×[E], Imax is the maximal photon flux (photon s^−1), [E] is the total enzyme concentration, and V ax is the maximum photon flux per molecule (photon s^−1 molecule^−1) from the fitting of the Michaelis-Menten equation. To determine the luminescent quantum yields, 25 μL of 5 μM individual substrate in PBS was injected into 25 μL PBS containing 100 nM corresponding luciferase. DTZ was used for all LuxSit variants while CTZ was used as the substrate of native RLuc. The luminescence signals were monitored until the reactions were completed (0.1 s integration and measurements were taken every 5 s for a total of 40 min). […] To record emission spectra, 25 μL of 50 μM DTZ in PBS were injected into 25 μL of 200 nM pure luciferases and the emission spectra were collected with 0.1 s integration and 2 nm increments from 300 to 700 num. In vitro luminescence activity measurements of LuxSit-i expressing HEK293T or HeLa cells were done similarly as 15,000 intact cells or lysates were used in the assay instead of purified luciferases. To evaluate the substrate specificity, 25 μL of 50 μM substrate analogs in PBS were added to 25 μL of 200 nM indicated luciferases, and the signals were recorded over 20 min. Data were shown as the total luminescence signal over the first 10 min. We normalized the data by setting the highest emission substrate at 100%.

Series [3] in a line: Luminescent quantum yield of LuxSit variants. The format is biochemical. The settings on record: consuming 125 pmol of DTZ in PBS with 50 nM recombinant luciferase; estimated relative to reported quantum yield of RLuc; mean ± s.d., n = 3. The protocol:
(§1) FIG. 10. Additional characterization of LuxSit variants. (a) Normalized emission kinetics of 15,000 intact HeLa cells expressing LuxSit-i, 100 nM purified LuxSit-i, or 100 nM purified LuxSit-f in the presence of 50 μM DTZ. The more extended emission kinetics in HeLa cells is likely due to the diffusion rate of DTZ across cell membranes. […] (c) Luminescent quantum yield was estimated from the integrated luminescence signal until completely converting 125 pmol substrates to photons in the presence of 50 nM corresponding luciferase (see Methods). All data points were plotted as the average of triplicate measurements.
For Michaelis-Menten kinetics measurements, 25 μL of serial diluted DTZ substrate in Tris pH 8.0 buffer was added into the wells of a white 96-well half-area microplate containing 25 μL of purified luciferases (final enzyme concentration: 100 nM; substrate concentration: 0.78 to 50 μM). […] The luminescence signals were monitored until the reactions were completed (0.1 s integration and measurements were taken every 5 s for a total of 40 min). […] In vitro luminescence activity measurements of LuxSit-i expressing HEK293T or HeLa cells were done similarly as 15,000 intact cells or lysates were used in the assay instead of purified luciferases. […] Data were shown as the total luminescence signal over the first 10 min. […]

A short description of series [4]: Substrate specificity on coelenterazine substrate analogs. It is filed as biochemical. The method, then: FIG. 4. High substrate specificity of designed luciferases allows multiplexed bioassay. (a) Chemical structures of Coelenterazine substrate analogs. (b) Activity of LuxSit-i on selected luciferin substrates. Luminescence image (top) and signal quantification (bottom) of the indicated substrate in the presence of 100 nM LuxSit-i. LuxSit-i has high specificity for the design target substrate, DTZ. (c) Heatmap visualization of the substrate specificity of LuxSit-i. Renilla luciferase (RLuc), Gaussia luciferase (GLuc), engineered NLuc from Oplophorus luciferase. […] (d) Luminescence emission spectrum of LuxSit-i/DTZ and RLuc/PP-CTZ can be spectrally resolved by 528/20 and 390/35 filters (shown in dashed bars) and only recognize the cognate substrate. (e) Schematic of the multiplex luciferase assay. […] (f-g) Luminescence signals from cells can be measured under either substrate-resolved or spectrally resolved methods by a plate reader. (f) For the substrate-resolved method, luminescence intensity was recorded without a filter after adding either PP-CTZ or DTZ. […] Luminescence signals were acquired from the lysate of 15,000 cells in CelLytic™ M reagent while CyOFP fluorescence signal was used to normalize cell numbers and transfection efficiencies. […]

Series [5] is described as follows: Circular dichroism spectra and thermal denaturation. It is filed as physicochemical. The settings on record: 220 nm, 25° C. to 95° C. An excerpt: Synthetic genes and oligonucleotides were purchased from Integrated DNA Technologies or GenScript. The synthetic gene was inserted between NdeI and XhoI sites of a pET29b+ vector, containing an N-terminal hexahistidine tag followed by a TEV protease cleavage site and a C-terminal stop codon. Restriction endonucleases, Q5 PCR polymerase, and T4 ligase were purchased from NEB. Plasmid DNA, PCR products, or digested fragments were purified by Qiagen DNA purification kits. DNA sequences were analyzed by Genewiz. Coelenterazine (CTZ) was purchased from Gold Biotechnology. Diphenylterazine (DTZ), pyridyl diphenylterazine (8pyDTZ), and Furimazine (FRZ) were purchased from MedChemExpress. […] DNA and protein concentrations were determined by a NanoDrop™ small-volume 8 channel UV/vis spectrometer. […] All luminescence measurements were acquired by a Biotek Synergy Neo2T™ Multi-Mode Plate Reader. To convert relative arbitrary unit (RLU) to the number of photons, Neo2 plate reader was calibrated by determining the chemiluminescence of luminol with known quantum yield in the presence of horseradish peroxidase and hydrogen peroxide in K2CO3 aqueous solution as previously described^45. SDS PAGE and luminescence images were captured by a Bio-Rad ChemiDocT™ XRS+. Images were analyzed using the Fiji image analysis software.
Purified protein samples were prepared at 15 μM in pH 7.4 10 mM phosphate buffer. Spectra from 190 nm to 260 nm were recorded at 25° C., 50° C., 75° C., 95° C., and after cooling back to 25° C. Thermal denaturation was monitored at 220 nm from 25° C. to 95° C. […]
In general terms: Circular dichroism is widely used to follow secondary structure.

A short description of series [6]: Luciferase activities of re-designed sequences based on LuxSit-i (Table 1). It is filed as biochemical. The settings on record: LuxSit-f and re-designed sequences based on LuxSit-i (Table 1). An excerpt:
In another embodiment, the proteins comprise an amino acid sequence at least 30%, 35%, 40%, 45%, 50%, 55%, 60%, 65%, 70%, 75%, 80%, 85%, 90%, 91%, 92%, 93%, 94%, 95%, 96%, 97%, 98%, 99%, or 100% identical to the amino acid selected from the group consisting of SEQ ID NO:1-181, as shown in Table 1. SEQ ID NO:5-181 in Table 1 are re-designed amino acid sequences based on LuxSit-i (SEQ ID NO:2), with their luciferase activities shown.

The nature of series [7]: Luminescence decay curves of LuxSit-i in various pH buffers. It is filed as biochemical. The method, then: as §1

Regarding `Oc1ccc(Cc2nc3c(Cc4ccccc4)nc(-c4ccc(O)cc4)cn3c2O)cc1` [CTZ, Coelenterazine], the Vmax in series [1] was 0.26 photon s^−1 molecule^−1.

B1: LuxSit-i: LuxSit variant R60S/A96L/M110V, SEQ ID NO:2, named for high brightness (protein)
chain: MSEEQIRQFLRRFYEALDSGDADTAASLFHPGVTIHLWDGVTFTSREEFREWFERLFSTSKDAQREIKSLEVRGDTVEVHVQLHATHNGQKHTVDLTHHWHFRGNRVTEVRVHINPTG
modifications: VARIANT 1 optionally absent; VARIANT 118 optionally absent
Consider B1, for which the “photon flux (photon s^−1) greater than native Renilla reniformis luciferase (RLuc)” value in series [2] worked out at 38%. Besides, the “LQY (luminescent quantum yield)” value in series [3] is reported as 14.5 ± 1.8%. Besides, the “selectivity for DTZ over bis-CTZ” value in series [4] was found to be 50 fold. In series [5], the “thermal stability (CD melting)” value was “thermostable”. The molecule also showed an Activity in series [6] of 763.6. Further, in series [7], the “pH dependence of DTZ luminescent reaction” value is “pH-dependent”. Also, under “25 μM DTZ”, the “higher photon flux over LuxSit” value is listed as “more than 100 fold”. This molecule also came in with a Relative emission intensity (integrated luminescence intensity over the first 20 min, normalized to LuxSit, 25 μM DTZ in Tris pH 8.0 buffer) of 153.
